# Results reported in patent US20170022287A1 (Chugai, published 2017).
# B1: R5 (antibody, V domains shown)
# VH: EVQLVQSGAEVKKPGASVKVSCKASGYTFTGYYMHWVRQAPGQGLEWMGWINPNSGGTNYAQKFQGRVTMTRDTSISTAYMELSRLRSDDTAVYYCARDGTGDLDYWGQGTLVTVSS
# VL: QSALTQPRSVSGSPGQSVTISCTGTSSDVGVYDYVSWYQQFPGKAPKLMIYDVNKRPSGVPDRFSGSKSGNTASLTVSGLQAEDEADYYCCSYSGTDIRWLFGGGTKLTVL
# notes: Naive library clone; Fab on phage in the phage ELISA
# B2: R3 (antibody, V domains shown)
# VH: EVQLVQSGAEVKKPGASVKVSCKASGYTFTSYYTHWVRQAPGQGLEWMGIINPSGGSTSYAQKFQGRVTMTRDTSTSTVYMELSSLRSEDTAVYYCARGAPEYSSSSDYWGQGTMVTVSS
# VL: QSALTQPASVSGSPGQSITISCTGTSSDVGGYNFVSWYQQHPGKAPKLMIYDVSKRPSGVSTRFSGSKSGNTASLTISGLQAEDEADYYCNSYTTSSTRWMFGGGTKVTVL
# notes: as for B1
# B3: R4 (antibody, V domains shown)
# VH: EVQLVQSGAEVKKPGASVKVSCKASGYTFSGYYMHWVRQAPGQGLEWMGWINPNSGDTNYAQNFQGRVTMTRDTSISTAYMELSRLRSDDTAVYYCARDGTGYSSSPDYWGQGTPVTVSS
# VL: QSALTQPASVSGSPGQSITISCTGTSSDVGGYNYVSWYQQHPGKAPKLMIYDVSNRPSGVSNRFSGSKSGNTASLTISGLQAEDEADYYCSSYTSSSTRWVFGGGTKLTVL
# notes: as for B1
# B4: R6 (antibody, V domains shown)
# VH: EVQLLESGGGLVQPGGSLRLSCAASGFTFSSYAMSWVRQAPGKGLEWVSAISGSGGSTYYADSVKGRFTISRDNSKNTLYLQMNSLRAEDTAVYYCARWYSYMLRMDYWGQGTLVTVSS
# VL: DIQMTQSPSSLSASVGDRVTITCRASQSISSYLNWYQQKPGKAPKLLIYAASSLQSGVPSRFSGSGSGTDFTLTISSLQPEDFATYYCQQFHSFPLTFGGGTKVEIK
# notes: Synthetic library clone; Fab on phage in the phage ELISA
# Tests used:
# [1] = target: full-length human CD137-Fc fusion protein (human); assay: ELISA, coated CD137-Fc protein 2 µg/mL, antibody 10 or 5 µg/mL, absorbance 620 nm; Non (uncoated well) 0.216
# [2] = target: T1, CRD1-3; assay: as above
# T1 construct: also called fragmented human CD137-Fc fusion protein CRD1-3
# [3] = target: T2, CRD1; assay: as above
# T2 construct: also called fragmented human CD137-Fc fusion protein CRD1
# [4] = target: T3, CRD2-3; assay: as above
# T3 construct: also called fragmented human CD137-Fc fusion protein CRD2-3
# [5] = target: T4, CRD1-2; assay: as above
# T4 construct: also called fragmented human CD137-Fc fusion protein CRD1-2
# [6] = target: T5, CRD3-4; assay: as above
# T5 construct: also called fragmented human CD137-Fc fusion protein CRD3-4
# [7] = target: T6, CRD2-4; assay: as above
# T6 construct: also called fragmented human CD137-Fc fusion protein CRD2-4
# [8] = target: full-length human CD137-Fc fusion protein (human); assay: ELISA, coated CD137-Fc protein 2 µg/mL, antibody 10 or 5 µg/mL; absorbance 620 nm divided by that of the uncoated well
# Procedure: (§1) Fragmented human CD137-Fc fusion proteins were diluted to 2 μg/mL in an aqueous sodium carbonate solution adjusted to pH9.6. Fifty μL of a diluted fragmented human CD137-Fc fusion protein was added individually to each well of a Nunc MaxiSorp flat-bottom 96 well plate (Nunc). This was allowed to stand at 4° C. overnight or longer, and then the plate was allowed to stand at room temperature for one hour so that the plate has the same temperature as the room temperature. The solution containing the fragmented human CD137-Fc fusion protein was removed by tilting, and each well was washed three times with 300 μL of Wash buffer (TBS containing 0.1% Tween20, TaKaRa). Next, 150 μL of blocking buffer (TBS containing 2% BSA) was added to each well, and this was allowed to stand for one hour or more. The blocking buffer was removed by tilting, and each well was washed three times with Wash Buffer in a similar manner to an earlier step. Then, 50 μL of an antibody solution prepared in advance by dilution with TBS to 10 μg/mL or 5 μg/mL was added to each well. This was subjected to a speed of 600 rpm or so for one hour at room temperature to bind the antibody to the immobilized antigen. […] 100 μL of a secondary antibody solution produced by 1000-fold dilution with TBS containing 0.1% Tween20 was added to each well. For the secondary antibody, ANTIBODY ALKALINE PHOSPHATASE CONJUGATE HUMAN IMMUNOGLOBULIN ABSORBED Goat Anti-Human Kappa Alkaline Phosphate from BIOSOURCE was used in the case of antibodies carrying a Kappa chain, and Human Lambda Light Chain Antibody; Goat anti-Human Lambda Light Chain Antibody Alkaline Phosphatase Conjugated from BETHYL LABORATORIES INC. was used in the case of antibodies carrying a Lambda chain. […] Color development was performed using the BluePhos Microwell kit from KPL. After the chromogenic reaction was stopped using the AP stop solution from KPL, the absorbance was measured at 620 nm on an absorptiometer.
# [9] = target: T1, CRD1-3; assay: as above
# Procedure: as §1
# [10] = target: T2, CRD1; assay: as above
# Procedure: as §1
# [11] = target: T3, CRD2-3; assay: as above
# Procedure: as §1
# [12] = target: T4, CRD1-2; assay: as above
# Procedure: as §1
# [13] = target: T5, CRD3-4; assay: as above
# Procedure: as §1
# [14] = target: T6, CRD2-4; assay: as above
# Procedure: as §1
# [15] = target: full-length human CD137-Fc fusion protein (human); assay: ELISA, coated CD137-Fc protein 2 µg/mL, antibody 10 or 5 µg/mL, absorbance 620 nm; Non (uncoated well) 0.061
# Procedure: as §1
# [16] = target: T1, CRD1-3; assay: as above
# Procedure: as §1
# [17] = target: T2, CRD1; assay: as above
# Procedure: as §1
# [18] = target: T3, CRD2-3; assay: as above
# Procedure: as §1
# [19] = target: T4, CRD1-2; assay: as above
# Procedure: as §1
# [20] = target: T5, CRD3-4; assay: as above
# Procedure: as §1
# [21] = target: T6, CRD2-4; assay: as above
# Procedure: as §1
# [22] = target: full-length human CD137-Fc fusion protein (human); assay: ELISA, coated CD137-Fc protein 2 µg/mL, antibody 10 or 5 µg/mL, absorbance 620 nm; Non (uncoated well) 0.051
# Procedure: as §1
# [23] = target: T1, CRD1-3; assay: as above
# Procedure: as §1
# [24] = target: T2, CRD1; assay: as above
# Procedure: as §1
# [25] = target: T3, CRD2-3; assay: as above
# Procedure: as §1
# [26] = target: T4, CRD1-2; assay: as above
# Procedure: as §1
# [27] = target: T5, CRD3-4; assay: as above
# Procedure: as §1
# [28] = target: T6, CRD2-4; assay: as above
# Procedure: as §1
# [29] = target: full-length human CD137-Fc fusion protein (human); assay: ELISA, coated CD137-Fc protein 2 µg/mL, antibody 10 or 5 µg/mL, absorbance 620 nm; Non (uncoated well) 0.165
# [30] = target: T1, CRD1-3; assay: as above
# [31] = target: T3, CRD2-3; assay: as above
# [32] = target: T5, CRD3-4; assay: as above
# [33] = target: T6, CRD2-4; assay: as above
# T4 sequence (chain, as listed by the source limits assumed): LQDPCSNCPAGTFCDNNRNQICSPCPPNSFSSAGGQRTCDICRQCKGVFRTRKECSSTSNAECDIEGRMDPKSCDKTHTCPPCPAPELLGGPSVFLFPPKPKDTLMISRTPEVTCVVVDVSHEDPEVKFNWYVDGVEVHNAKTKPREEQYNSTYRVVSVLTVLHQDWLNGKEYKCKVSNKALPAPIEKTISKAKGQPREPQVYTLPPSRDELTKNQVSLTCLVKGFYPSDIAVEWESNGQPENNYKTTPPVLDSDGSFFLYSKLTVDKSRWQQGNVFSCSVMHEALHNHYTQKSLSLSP
# T3 sequence (chain, as listed by the source limits assumed): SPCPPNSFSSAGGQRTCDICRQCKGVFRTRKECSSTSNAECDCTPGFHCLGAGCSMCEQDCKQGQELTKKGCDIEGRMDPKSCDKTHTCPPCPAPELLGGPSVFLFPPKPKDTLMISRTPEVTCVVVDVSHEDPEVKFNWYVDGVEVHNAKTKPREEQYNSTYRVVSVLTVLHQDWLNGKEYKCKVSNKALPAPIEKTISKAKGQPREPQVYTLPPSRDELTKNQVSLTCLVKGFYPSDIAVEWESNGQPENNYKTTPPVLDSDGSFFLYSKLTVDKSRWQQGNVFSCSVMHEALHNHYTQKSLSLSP
# T6 sequence (chain, as listed by the source limits assumed): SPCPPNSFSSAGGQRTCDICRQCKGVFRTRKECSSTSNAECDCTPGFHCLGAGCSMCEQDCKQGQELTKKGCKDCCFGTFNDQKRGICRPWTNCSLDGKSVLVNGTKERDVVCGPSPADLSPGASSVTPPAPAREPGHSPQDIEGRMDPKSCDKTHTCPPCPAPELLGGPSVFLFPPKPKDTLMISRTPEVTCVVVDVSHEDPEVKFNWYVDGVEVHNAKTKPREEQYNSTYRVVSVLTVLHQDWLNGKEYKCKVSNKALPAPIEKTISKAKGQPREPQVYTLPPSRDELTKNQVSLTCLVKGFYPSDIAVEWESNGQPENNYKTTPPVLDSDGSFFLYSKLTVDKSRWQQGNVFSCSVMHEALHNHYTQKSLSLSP
# T1 sequence (chain, as listed by the source limits assumed): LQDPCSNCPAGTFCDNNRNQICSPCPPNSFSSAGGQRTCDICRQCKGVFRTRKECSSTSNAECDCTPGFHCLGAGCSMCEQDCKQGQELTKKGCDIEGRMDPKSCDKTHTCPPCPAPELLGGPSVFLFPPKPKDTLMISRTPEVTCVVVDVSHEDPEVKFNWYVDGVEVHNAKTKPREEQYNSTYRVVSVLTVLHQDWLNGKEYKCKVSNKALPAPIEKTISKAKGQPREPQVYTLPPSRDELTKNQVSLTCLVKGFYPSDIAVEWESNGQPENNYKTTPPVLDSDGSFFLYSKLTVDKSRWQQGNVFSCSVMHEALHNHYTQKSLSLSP
# T5 sequence (chain, as listed by the source limits assumed): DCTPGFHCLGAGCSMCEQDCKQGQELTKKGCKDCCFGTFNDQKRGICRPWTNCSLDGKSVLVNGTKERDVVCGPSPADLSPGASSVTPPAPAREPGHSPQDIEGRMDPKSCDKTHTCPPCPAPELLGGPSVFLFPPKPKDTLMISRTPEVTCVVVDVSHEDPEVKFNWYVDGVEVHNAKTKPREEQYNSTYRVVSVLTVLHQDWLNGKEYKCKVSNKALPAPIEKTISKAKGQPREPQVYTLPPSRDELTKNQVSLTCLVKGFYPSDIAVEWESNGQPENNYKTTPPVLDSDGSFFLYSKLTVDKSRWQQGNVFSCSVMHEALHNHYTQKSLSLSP
# T2 sequence (chain, as listed by the source limits assumed): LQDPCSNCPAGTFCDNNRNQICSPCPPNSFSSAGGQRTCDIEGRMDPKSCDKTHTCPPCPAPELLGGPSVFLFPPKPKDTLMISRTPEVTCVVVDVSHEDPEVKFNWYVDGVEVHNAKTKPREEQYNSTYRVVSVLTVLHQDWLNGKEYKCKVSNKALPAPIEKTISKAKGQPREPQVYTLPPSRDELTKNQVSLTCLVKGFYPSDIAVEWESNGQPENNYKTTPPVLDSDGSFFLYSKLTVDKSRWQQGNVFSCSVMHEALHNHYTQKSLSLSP
# Chain of full-length human CD137-Fc fusion protein (human) (chain, as listed by the source limits assumed): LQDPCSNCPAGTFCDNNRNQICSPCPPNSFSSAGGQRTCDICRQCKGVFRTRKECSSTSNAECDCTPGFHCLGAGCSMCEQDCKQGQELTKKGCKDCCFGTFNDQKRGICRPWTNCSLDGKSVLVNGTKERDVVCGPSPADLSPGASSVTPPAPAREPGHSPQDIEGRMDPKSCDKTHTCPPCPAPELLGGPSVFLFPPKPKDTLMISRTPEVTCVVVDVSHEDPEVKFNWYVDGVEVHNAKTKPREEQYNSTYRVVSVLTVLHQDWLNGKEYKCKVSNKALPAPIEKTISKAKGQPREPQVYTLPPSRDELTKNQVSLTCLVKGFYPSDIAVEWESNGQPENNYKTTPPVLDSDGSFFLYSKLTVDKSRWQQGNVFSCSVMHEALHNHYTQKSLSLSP
Binder,Ratio with respect to Non-Coating [8],Ratio with respect to Non-Coating [9],Ratio with respect to Non-Coating [10],Ratio with respect to Non-Coating [11],Ratio with respect to Non-Coating [12],Ratio with respect to Non-Coating [13],Ratio with respect to Non-Coating [14],other results
B1,8.7,6.3,1.3,1.3,7.9,0.7,1.2,ELISA color development level [1]: 1.88; ELISA color development level [2]: 1.36; ELISA color development level [3]: 0.278; ELISA color development level [4]: 0.274; ELISA color development level [5]: 1.7; ELISA color development level [6]: 0.161; ELISA color development level [7]: 0.25
B2,33.7,18.4,1.7,1.6,28.5,1.3,1.4,ELISA color development level [15]: 2.06; ELISA color development level [16]: 1.12; ELISA color development level [17]: 0.103; ELISA color development level [18]: 0.0995; ELISA color development level [19]: 1.74; ELISA color development level [20]: 0.077; ELISA color development level [21]: 0.0875
B3,37.1,15.3,1.2,1.1,29.3,1.1,1.3,ELISA color development level [22]: 1.89; ELISA color development level [23]: 0.779; ELISA color development level [24]: 0.0635; ELISA color development level [25]: 0.0585; ELISA color development level [26]: 1.49; ELISA color development level [27]: 0.056; ELISA color development level [28]: 0.065
B4,13.1,13.9,,15.5,,16.6,14.2,ELISA color development level [29]: 2.16; ELISA color development level [30]: 2.3; ELISA color development level [31]: 2.56; ELISA color development level [32]: 2.73; ELISA color development level [33]: 2.34
